Reference: patent publication US20230073274A1 (NOVELMED THERAPEUTICS, published 2023)

How the values were obtained:
human properdin [1] = molecular target: T1, human properdin (human, UniProt P27918 28-469); assay: ELISA, properdin coated on the plate, OD 450 nm
human properdin [2] = molecular target: T1, human properdin; assay: cell-based or functional assay
human properdin [3] = molecular target: T1, human properdin; assay: cell-based or functional assay; remark: listed apart in the source
human properdin [4] = molecular target: T1, human properdin; assay: ELISA, human properdin coated on the plate, OD 450 nm
Procedure: (§1) Polystyrene microtiter plates were coated with human (2.0 μg/50 μl per well) properdin in phosphate buffered saline (PBS) overnight at 4° C. After aspirating the properdin solution, the wells were blocked with PBS containing 1% bovine serum albumin (BSA) (Sigma-Aldrich, St. Louis, Mo.) for 2 hours at room temperature. Wells without peptide or properdin coating served as background controls. Aliquots of the test antibody in blocking solution were added to the properdin coated wells and allowed to incubate for 1 hour to allow binding to occur. Following a 1 hour incubation at room temperature, the plate was rinsed with PBS five times and incubated with 1:2000 diluted anti-properdin polyclonal antibody.

human properdin [5] = molecular target: T1, human properdin; assay: cell-based or functional assay; remark: listed apart in the source
human properdin [6] = molecular target: T1, human properdin; assay: cell-based or functional assay; remark: listed apart in the source
human properdin [7] = molecular target: T1, human properdin; assay: ELISA, human properdin coated on plate
Procedure: as §1

human properdin [8] = molecular target: T1, human properdin; assay: cell-based or functional assay; remark: listed apart in the source

T1 sequence (P27918 28-469 limits assumed): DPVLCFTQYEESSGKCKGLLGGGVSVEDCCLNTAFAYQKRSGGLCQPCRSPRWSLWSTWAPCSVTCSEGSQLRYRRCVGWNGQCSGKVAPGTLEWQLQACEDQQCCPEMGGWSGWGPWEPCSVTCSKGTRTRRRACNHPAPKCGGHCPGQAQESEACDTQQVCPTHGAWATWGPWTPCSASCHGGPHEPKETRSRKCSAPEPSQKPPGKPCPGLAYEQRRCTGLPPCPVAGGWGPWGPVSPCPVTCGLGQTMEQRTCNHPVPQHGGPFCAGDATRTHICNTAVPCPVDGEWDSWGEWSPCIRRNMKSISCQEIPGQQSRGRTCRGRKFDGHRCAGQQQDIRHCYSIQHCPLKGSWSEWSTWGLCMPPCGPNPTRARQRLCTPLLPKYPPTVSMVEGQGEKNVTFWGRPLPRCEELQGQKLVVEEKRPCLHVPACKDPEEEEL

| Binder | EC50 (read off the curve) (human properdin [1]) | IC50 (read off the curve): C3b deposition (sheet title: LPS C3b 10% NHS) (human properdin [2]) | MAC (µg/Ml); inhibition of MAC formation (human properdin [3]) | Properdin (µg/mL); inhibition of properdin deposition (human properdin [3]) | EC50 (read off the curve) (human properdin [4]) | IC50 (read off the curve): C3b deposition (AP activation on LPS, normal human serum) (human properdin [5]) | IC50 (read off the curve): properdin deposition (AP activation on LPS, 10% normal human serum) (human properdin [6]) | Binding Affinity (human properdin [7]) | IC50 (read off the curve): properdin deposition (AP C3 convertase formation assay) (human properdin [8]) |
| --- | --- | --- | --- | --- | --- | --- | --- | --- | --- |
| NMT31 (antibody, V domains shown) VH: EVTLKESGPTLVKPTQTLTLTCTFSGFSLSTSGMGVGWIRQPPGKALEWLAHIWWDDVKSYNPALKSRLTITKDTSKNQVVLTMTNMDPVDTATYYCARIGDGYYSFDYWGQGTTVTVSS VL: DIQMTQSPSSLSASVGDRVTITCRASQDVSDAVAWFQQKPGKAPKLLIYSPSYRYTGVPSRFSGSGSGTDFTFTISSLQPEDLATYYCQQHYSTPWTFGQGTKLEIK | ~60 pM | ~0.7 µg/mL |  |  |  |  |  |  |  |
| NMT15 (antibody, V domains shown) VH: QVQLVQSAPEVAKPGTSVKMSCKASGYIFTNYPIHWVKQAPGQGLEWIGFIDPGGGYDEPDERFRDRATLTADKSTSTAYMELSSLRSEDTAIYYCARRGGGYYLDYWGQGTLVTVSS VL: DIQMTQSPSSLSASLGDRVTITCRASQDISFFLNWYQQKPDGTVKLLIYYTSRYHSGVPSRFSGSGSGTDFTLTISSLQPEDFATYFCQHGNTLPWTFGQGTKLEIK |  |  | 1 µg/mL | 2 µg/mL | 200 to 300 pM | ~0.5 µg/mL | ~0.8 µg/mL | 270 pM | ~0.4 µg/mL |

More lines, now with the values ahead:

| EC50 (read off the curve) (human properdin [1]) | IC50 (read off the curve): C3b deposition (sheet title: LPS C3b 10% NHS) (human properdin [2]) | MAC (µg/Ml); inhibition of MAC formation (human properdin [3]) | Properdin (µg/mL); inhibition of properdin deposition (human properdin [3]) | EC50 (read off the curve) (human properdin [4]) | IC50 (read off the curve): C3b deposition (AP activation on LPS, normal human serum) (human properdin [5]) | IC50 (read off the curve): properdin deposition (AP activation on LPS, 10% normal human serum) (human properdin [6]) | Binding Affinity (human properdin [7]) | IC50 (read off the curve): properdin deposition (AP C3 convertase formation assay) (human properdin [8]) | Binder |
| --- | --- | --- | --- | --- | --- | --- | --- | --- | --- |
| ~40 pM | ~0.4 µg/mL |  |  |  |  |  |  |  | NMT30 (antibody, V domains shown) VH: EVTLKESGPTLVKPTQTLTLTCTFSGFSLSTSGMGVGWIRQPPGKALEWLAHIWWDDVKSYNPALKSRLTITKDTSKNQVVLTITNVDPVDTATYYCARIGDGYYSFDYWGQGTTLTVSS VL: DIQMTQSPSSLSASVGDRVTITCRASQDVSDAVAWFQQKPGKAPKLLIYSPSYRYTGVPSRFSGSGSGTDFTFTISSLQPEDFATYYCQQHYSTPWTFGQGTKLEIK |
| ~50 pM | ~0.9 µg/mL |  |  |  |  |  |  |  | NMT29 (antibody, V domains shown) VH: EVTLKESGPTLVKPTQTLTLTCTFSGFSLSTSGMGVGWIRQPPGKALEWLAHIWWDDVKSYNPALKSRLTITKDTSKNQVVLTMTNMDPVDTATYYCARIGDGYYSFDYWGQGTTVTVSS VL: DIQMTQSPSSLSASVGDRVTITCRASQDVSDAVAWYQQKPGKAPKLLIYSPSYRYTGVPSRFSGSGSGTDFTLTISSLQPEDFATYYCQQHYSTPWTFGQGTKLEIK |
